Test results taken from patent publication US20260201020A1, “METHODS FOR EXPRESSION OF FUSION-FREE BOVINE ULTRALONG CDR3 SCAFFOLD” (priority 2022, published 2026).
Like-named read-outs stand apart in the source and are kept apart here.

How the values were obtained:
[1] = molecular target: SARS-CoV-2 Spike RBD (SARS-CoV-2), P0DTC2
[2] = molecular target: SARS-CoV-2 Spike RBD (SARS-CoV-2), P0DTC2; remark: listed apart in the source
[3] = molecular target: SARS-CoV-2 Spike RBD (SARS-CoV-2), P0DTC2; remark: listed apart in the source
[4] = molecular target: SARS-CoV-2 Spike RBD (SARS-CoV-2), P0DTC2; remark: listed apart in the source
[5] = molecular target: SARS-CoV-2 Spike RBD (SARS-CoV-2), P0DTC2; remark: listed apart in the source
[6] = molecular target: SARS-CoV-2 Spike RBD (SARS-CoV-2), P0DTC2; remark: listed apart in the source
[7] = molecular target: SARS-CoV-2 Spike RBD (SARS-CoV-2), P0DTC2; remark: listed apart in the source

Adjusted Binding Rate [1]: 31.9 nm/s | Adjusted Binding Rate [2]: 6.47 nm/s | Adjusted Binding Rate [3]: 3.79 nm/s | Adjusted Binding Rate [4]: 3.35 nm/s | Adjusted Binding Rate [5]: 19.4 nm/s | Adjusted Binding Rate [6]: 14.3 nm/s | Adjusted Binding Rate [7]: 3.4 nm/s
B1: R2G3-His (peptide)
chain: GGGGAMGSEGDKTCPDGYEHTCGCIGGCGCKRSACIGALCCQASLGGWLSDGETYTGGGGSGGGGSHHHHHH
modifications: not checked
